For one molecule, Kd results are on record in publication PMC12186490 (2025).

In general, Kd refers to the equilibrium constant for the complex coming apart. A higher Kd goes with lower affinity.

Assay [1] concerns the target T1, fluorescein-labeled synthetic NRPS-inducing peptide (NIP) (Streptococcus salivarius K12, fluorescein label). Briefly: FP; pH 5.5.
Assay [2] deals with T1, fluorescein-labeled synthetic …. Briefly: FP; pH 7.5.
For assay [3] the target is unchanged. Put plainly: FP; pH 5.0.
Assay [4] has the same target. Put plainly: FP; pH 7.5. The source holds these as a separate data set.
The target is the same in assay [5]. Put plainly: FP; pH 5.5. The source holds these as a separate data set.
For assay [6] the target is unchanged. Put plainly: FP; pH 6.0.
Assay [7] has the same target. Briefly: FP; pH 6.5.
The target is the same in assay [8]. Put plainly: FP; pH 7.0.

B1: NRPS regulator NrpR (amino acids 1-285), recombinant, untagged (receptor)
chain: GSHMNFGQAIDHLRRQKHFSVKQICGNYLSRQTYYRFVNNEVDISSTKLFYLLNHLNVNVDEFLFICNNFQLEKEFTDMEKIKIYFEKNNIVGLQNLLTSYSSQINVKEKIIYALISSLLGRLTNTSSCTEEKILRDYLINIETWTHYETVLFNNAMFIFDSEFIELIFRKINLNLEKYSTLRYYGNESIRMFINMIILYIDRQDIRRAKEALQIAKNFKINDDCMYEKSCIVFFNEVLNLLNGEISSLKICKSIIKYFNLIGSLSIAAMFESYLDTLIKNNPHITFN
As for B1, the Kd in assay [1] stood at 6.1 nM; in assay [2], 26 nM; in assay [3], 18 nM; in assay [4], 20.4 nM; in assay [5] it was 7.5 nM; in assay [6], 12.2 nM. For the same molecule, the values for the Kd in assay [7] and in assay [8] were 16.2 nM and 18.4 nM, respectively.
